B1: library; numbered along this chain (parent)
chain: MAAAGGARLLRAASAVLGGPAGRWLHHAGSRAGSSGLLRNRGPGGSAEASRSLSVSARARSSSEDKITVHFINRDGETLTTKGKVGDSLLDVVVENNLDIDGFGACEGTLACSTCHLIFEDHIYEKLDAITDEENDMLDLAYGLTDRSRLGCQICLTKSMDNMTVRVPETVADARQSIDVGKTS

Variants of: B1
Assay: scaled log2 fold change in cell abundance, elesclomol vs control (0 = silent mean, 1 = nonsense mean) (scaled log2 ratio); higher = higher viability under elesclomol (loss of FDX1 cuproptosis function)
Details: glucose 10 mM
[1] = with ABC1 FDX1 KO, elesclomol 5 nM, 14 days
[2] = with HEK293T FDX1 KO, elesclomol 40 nM, 11 days
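Note: variant abundance is its share of total variant reads in each endpoint sample, from next-generation sequencing of the integrated ORF PCR-amplified out of genomic DNA.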

Row | Variant | scaled log2 fold change [1] | scaled log2 fold change [2]
1 | D179R | 0.498 | -0.221
2 | D179T | 0.106 | 0.00101
3 | D179Y | 0.0967 | -0.339
4 | D179C | 0.369 | -0.227
5 | D179F | -0.352 | 0.995
6 | D179I | -0.885 | 0.926
7 | D179K | 0.53 | -0.385
8 | D179V | -0.0481 | 0.172
9 | D179N | 0.063 | 
10 | D179Q | 0.442 | -0.984
11 | D179W | 0.235 | 
12 | D179A | -0.393 | -0.278
13 | D179H | 0.224 | 
14 | D179E | -0.000144 | 0.0611
15 | D179L | 0.0184 | 1.12
16 | D179M | 0.0418 | -0.494
17 | D179P | -0.26 | 0.0267
18 | P168M | 0.157 | -0.366
19 | P168L | 0.485 | 0.478
20 | P168D | 0.403 | 1.03
21 | P168V | 0.143 | -0.0343
22 | P168F | 0.153 | 0.798
23 | P168E | 0.408 | -0.105
24 | P168I | -0.0742 | 0.61

Row | Variant | scaled log2 fold change [1] | scaled log2 fold change [2]
25 | P168W | 0.463 | 0.286
26 | P168Y | 0.394 | -0.173
27 | P168N | 0.157 | -0.31
28 | P168Q | 0.259 | 0.667
29 | P168R | 0.453 | 0.117
30 | P168H | 0.377 | 0.136
31 | P168S | 0.106 | 0.443
32 | P168T | 0.449 | -0.142
33 | P168C | 0.163 | 0.254
34 | P168K | 0.508 | -0.335
35 | P168A | 0.158 | -0.0417
36 | E169A | 0.277 | -0.0328
37 | E169V | -0.251 | 0.342
38 | E169M | -0.846 | 0.0592
39 | E169F | -0.455 | 0.0831
40 | E169Y | -0.0627 | -0.484
41 | E169G | -1.32 | 0.409
42 | E169C | -0.223 | -0.0591
43 | E169I | -0.202 | -0.174
44 | E169D | -0.464 | 1.13
45 | E169T | -0.402 | -0.135
46 | E169H | 0.197 | 0.526
47 | E169R | 0.0391 | 0.411
48 | E169L | -0.227 | -0.347

Row | Variant | scaled log2 fold change [1] | scaled log2 fold change [2]
49 | E169W | -0.134 | 0.73
50 | E169Q | -0.166 | 0.849
51 | E169S | -1.11 | -0.0914
52 | E169N | -0.234 | 0.306
53 | E169K | -0.0829 | 1.04
54 | E169P | -0.343 | 0.322
55 | V167Q | 0.218 | 1.05
56 | V167T | 0.214 | 0.998
57 | V167P | 0.251 | -0.184
58 | V167W | 0.155 | -0.0986
59 | V167R | 0.264 | -0.286
60 | V167Y | -0.0283 | 0.556
61 | V167S | 0.152 | 0.0174
62 | A172G | -0.0465 | 0.05
63 | A172V | 0.337 | -0.531
64 | A172K | 0.212 | 
65 | A172R | -0.163 | 0.124
66 | A172C | -0.253 | -0.168
67 | A172M | -0.557 | -0.421
68 | A172F | -0.0712 | 0.241
69 | A172H | -0.391 | 0.0671
70 | A172I | 0.216 | 1.09
71 | A172E | 0.236 | 0.926
72 | A172P | -0.333 | 0.355

Row | Variant | scaled log2 fold change [1] | scaled log2 fold change [2]
73 | A172T | -0.0186 | 1.1
74 | A172D | 0.0896 | 1.11
75 | A172W | 0.0817 | 0.744
76 | A172Q | 0.194 | 0.591
77 | A172Y | 0.17 | 
78 | A172L | -0.0445 | -0.675
79 | A172N | -0.267 | -0.223
80 | A172S | 0.42 | 0.922
81 | R175A | 0.455 | -0.138
82 | R175Y | 0.225 | -0.118
83 | R175M | -0.223 | 0.0945
84 | R175N | 0.0623 | 0.495
85 | R175T | 0.48 | 0.313
86 | R175V | 0.472 | -0.0442
87 | R175W | 0.307 | -0.0023
88 | R175S | 0.343 | 0.224
89 | R175L | 0.518 | 
90 | R175K | 0.138 | -0.161
91 | R175D | 0.148 | 1.25
92 | R175Q | -1.39 | -0.894
93 | R175E | 0.417 | 0.643
94 | R175G | 0.394 | 
95 | R175C | -0.0756 | 0.45
96 | R175F | 0.208 | 0.0272

Row | Variant | scaled log2 fold change [1] | scaled log2 fold change [2]
97 | R175H | 0.468 | -0.908
98 | R175P | -0.117 | 0.128
99 | R175I | -0.385 | 0.157
100 | Q176Y | 0.0438 | 1.3
101 | Q176V | 0.192 | -0.626
102 | Q176S | -0.0172 | -0.0154
103 | Q176C | 0.128 | -0.158
104 | Q176G | -0.184 | -0.11
105 | Q176I | 0.324 | -0.471
106 | Q176R | -0.155 | 0.492
107 | Q176N | -0.0287 | 1.21
108 | Q176T | -0.0483 | -0.279
109 | Q176L | -0.0736 | -0.65
110 | Q176D | -0.118 | -0.177
111 | Q176A | 0.239 | 0.8
112 | Q176M | 0.291 | 
113 | Q176P | 0.375 | 0.159
114 | Q176W | -0.225 | 0.328
115 | Q176H | -0.0199 | 0.909
116 | Q176E | 0.157 | -0.685
117 | Q176F | -0.29 | 0.182
118 | Q176K | 0.426 | 0.463

Source: the supplement of paper PMC12855868
